B1: Small ribosomal subunit protein bS6, P23370 (parent)
chain: MRRYEVNIVLNPNLDQSQLALEKEIIQRALENYGARVEKVEELGLRRLAYPIAKDPQGYFLWYQVEMPEDRVNDLARELRIRDNVRRVMVVKSQEPFLANA

Variants of B1 are the subject of the data set. Particulars: Thermus thermophilus; pH 8; 25 °C; GdnHCl; Fluorescence; Tris-HCl 50 mM; reversible: No; structure 1RIS; whole UniProt chain shown.

Several values for one entry are separate records, joined by “and”; a condition that tells them apart may be missing. Equal entries are not always repeated.

Regarding MRRYEVNIVLNPNLDQSQLALEKEIIQRALENYGARVEKVEELGLRRLAYPIAKDPQGYFLWYQVEMPEDRVNDLARELRIRDNVRRAMVVKSQEPFLANA [V88A], the “ddG of mutation (higher = less stable)” value is 1.1 kcal/mol and 3 kcal/mol and 2 kcal/mol; the denaturant m value was 3.12 kcal/mol/M and 2.01 kcal/mol/M and 2.82 kcal/mol/M; the “denaturant midpoint (higher = more stable)” value (shortened to “denaturant midpoint”) is 2.66 M and 2.9 M and 3.2 M; the unfolding free energy was 8.3 kcal/mol and 6.5 kcal/mol and 9 kcal/mol.
Take MRRYEVNAVLNPNLDQSQLALEKEIIQRALENYGARVEKVEELGLRRLAYPIAKDPQGYFLWYQVEMPEDRVNDLARELRIRDNVRRVMVVKSQEPFLANA [I8A]: the “ddG of mutation (higher = less stable)” value was 2.9 kcal/mol and 4.4 kcal/mol; the denaturant m value was 2.78 kcal/mol/M and 2.44 kcal/mol/M and 2.83 kcal/mol/M; the “denaturant midpoint” value is 1.82 M and 2.05 M and 2.35 M; the unfolding free energy is 5.1 kcal/mol and 5 kcal/mol and 6.6 kcal/mol.
On to MRRYEVNIVLNPNLDQSQLALEKEIIQRALENYGARVEKVEELGLRRLAYPIAKDPQGYFLWYQVEMPEDRVNDLARELRIRDNARRVMVVKSQEPFLANA [V85A], for which the “ddG of mutation (higher = less stable)” value was 2.9 kcal/mol and 2.3 kcal/mol; the denaturant m value was 2.51 kcal/mol/M and 2.84 kcal/mol/M; the “denaturant midpoint” value is 2.05 M and 2.54 M; the unfolding free energy is 5.1 kcal/mol and 7.2 kcal/mol.
Regarding MRRYEVNIVLNPNLDQSQLALEKEIAQRALENYGARVEKVEELGLRRLAYPIAKDPQGYFLWYQVEMPEDRVNDLARELRIRDNVRRVMVVKSQEPFLANA [I26A], the “ddG of mutation (higher = less stable)” value was 2.8 kcal/mol and 3 kcal/mol and 3.2 kcal/mol; the denaturant m value was 2.47 kcal/mol/M and 2.61 kcal/mol/M and 2.62 kcal/mol/M; the “denaturant midpoint” value is 2.09 M and 2.46 M and 2.97 M; the unfolding free energy is 5.2 kcal/mol and 6.4 kcal/mol and 7.8 kcal/mol.
Turning to MRRYEVNIVLNPNLDQSQLALEKEIIQRALENAGARVEKVEELGLRRLAYPIAKDPQGYFLWYQVEMPEDRVNDLARELRIRDNVRRVMVVKSQEPFLANA [Y33A], the denaturant m value was 2.83 kcal/mol/M and 3.26 kcal/mol/M and 2.34 kcal/mol/M; the “denaturant midpoint” value is 3.05 M and 3.65 M and 3.82 M; the unfolding free energy was 8.6 kcal/mol and 11.9 kcal/mol and 8.9 kcal/mol.
As to MRRYEVNIVLNPNLDQSQLALEKEIIQRALENYGARVEKVEELGLRRLAYPIAKDPQGYFLWYQAEMPEDRVNDLARELRIRDNVRRVMVVKSQEPFLANA [V65A], the denaturant m value was 2.61 kcal/mol/M and 2.77 kcal/mol/M and 2.84 kcal/mol/M.
For the variant MRRYEVNIVLNPNLDQSQLALEKEIIQRALENYGGRVEKVEELGLRRLAYPIAKDPQGYFLWYQVEMPEDRVNDLARELRIRDNVRRVMVVKSQEPFLANA [A35G], the “ddG of mutation (higher = less stable)” value was 0.6 kcal/mol and 0.7 kcal/mol; the denaturant m value was 2.91 kcal/mol/M and 2.95 kcal/mol/M; the “denaturant midpoint” value is 3.03 M and 3.5 M; the unfolding free energy was 8.8 kcal/mol and 10.3 kcal/mol.
Turning to MRRYEVNIVLNPNLDQSQLALQKEIIQRALENYGARVEKVEELGLRRLAYPIAKDPQGYFLWYQVEMPEDRVNDLARELRIRDNVRRVMVVKSQEPFLANA [E22Q], the unfolding free energy was 7.6 kcal/mol and 8.9 kcal/mol and 11.4 kcal/mol.
For MRRYEVNIVLNPNLDQSQLALEKEIIQRALENYGARVEKVEELGLRRLAYPIAKDPQGYFLWYQVEMPEDRVNDAARELRIRDNVRRVMVVKSQEPFLANA [L75A], the “ddG of mutation (higher = less stable)” value is 0.9 kcal/mol and 0.8 kcal/mol and 0.7 kcal/mol; the denaturant m value was 3.13 kcal/mol/M and 2.95 kcal/mol/M and 3.19 kcal/mol/M; the “denaturant midpoint” value was 2.71 M and 2.95 M and 3.24 M; the unfolding free energy was 8.5 kcal/mol and 8.7 kcal/mol and 10.3 kcal/mol.

The values are drawn from FireProtDB (doi:10.1016/j.jmb.2005.05.056).
